Data reported in article PMC2844151.

Target: T1, Mycobacterium tuberculosis cAMP receptor protein (Rv3676) (Mycobacterium tuberculosis), P9WMH3
T1 chain: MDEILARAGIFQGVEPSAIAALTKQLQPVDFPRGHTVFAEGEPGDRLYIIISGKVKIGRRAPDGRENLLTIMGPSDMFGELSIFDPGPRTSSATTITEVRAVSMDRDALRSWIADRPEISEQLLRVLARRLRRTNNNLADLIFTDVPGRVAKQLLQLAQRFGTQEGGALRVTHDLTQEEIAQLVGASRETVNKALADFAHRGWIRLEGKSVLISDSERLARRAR
Experiment: cross-linking
Settings: remark: other sources report otherwise

B1: Mycobacterium tuberculosis cAMP receptor protein (Rv3676), P9WMH3 1-224 (natural protein)
chain: MDEILARAGIFQGVEPSAIAALTKQLQPVDFPRGHTVFAEGEPGDRLYIIISGKVKIGRRAPDGRENLLTIMGPSDMFGELSIFDPGPRTSSATTITEVRAVSMDRDALRSWIADRPEISEQLLRVLARRLRRTNNNLADLIFTDVPGRVAKQLLQLAQRFGTQEGGALRVTHDLTQEEIAQLVGASRETVNKALADFAHRGWIRLEGKSVLISDSERLARRAR
stoichiometry N: 2
